For test [1], the target named is T1, cloned soluble GalNAc-transferase (GalNAcTs) (Bos taurus, UniProt Q07537).
T1 construct: The plasmid pAC373-GalNAcT (Homa et al., 1993) which contains the full length GalNAc-transferase gene; honeybee melittin signal peptide (21 aa) (N, cleaved yes); made in house; host or cells: Sf9 cells / baculovirus, purified from serum-free culture medium on apomucin-Sepharose
T1 sequence (Q07537 48-559 limits assumed): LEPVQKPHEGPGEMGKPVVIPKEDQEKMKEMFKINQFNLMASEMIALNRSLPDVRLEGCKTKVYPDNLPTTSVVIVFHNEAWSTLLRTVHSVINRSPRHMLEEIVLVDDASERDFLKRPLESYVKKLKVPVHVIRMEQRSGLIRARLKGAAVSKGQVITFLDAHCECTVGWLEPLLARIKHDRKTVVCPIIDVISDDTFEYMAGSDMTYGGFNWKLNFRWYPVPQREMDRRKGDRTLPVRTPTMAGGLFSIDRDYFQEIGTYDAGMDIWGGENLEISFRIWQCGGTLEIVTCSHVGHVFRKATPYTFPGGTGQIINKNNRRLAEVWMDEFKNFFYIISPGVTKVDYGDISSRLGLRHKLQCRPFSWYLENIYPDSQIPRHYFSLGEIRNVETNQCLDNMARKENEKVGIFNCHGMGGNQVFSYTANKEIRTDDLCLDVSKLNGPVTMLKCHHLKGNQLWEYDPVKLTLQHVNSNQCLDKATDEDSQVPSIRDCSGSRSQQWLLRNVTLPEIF
The experiment in a line: Kinetic parameters with the cloned soluble GalNAc-transferase (Bond Elut assay). The test is classed as biochemical, bovine. The settings on record: read-out: Km for UDP-GalNAc.

Test [2] relates to GalNAc-transferase purified from porcine submaxillary glands. As to conditions: Wang et al., 1992; read-out: Km for UDP-GalNAc; cited from earlier work.
In test [3] the target is T2, bovine colostrum GalNAc-transferase (Bos taurus, UniProt Q07537).
T2 sequence (Q07537 41-559 limits assumed): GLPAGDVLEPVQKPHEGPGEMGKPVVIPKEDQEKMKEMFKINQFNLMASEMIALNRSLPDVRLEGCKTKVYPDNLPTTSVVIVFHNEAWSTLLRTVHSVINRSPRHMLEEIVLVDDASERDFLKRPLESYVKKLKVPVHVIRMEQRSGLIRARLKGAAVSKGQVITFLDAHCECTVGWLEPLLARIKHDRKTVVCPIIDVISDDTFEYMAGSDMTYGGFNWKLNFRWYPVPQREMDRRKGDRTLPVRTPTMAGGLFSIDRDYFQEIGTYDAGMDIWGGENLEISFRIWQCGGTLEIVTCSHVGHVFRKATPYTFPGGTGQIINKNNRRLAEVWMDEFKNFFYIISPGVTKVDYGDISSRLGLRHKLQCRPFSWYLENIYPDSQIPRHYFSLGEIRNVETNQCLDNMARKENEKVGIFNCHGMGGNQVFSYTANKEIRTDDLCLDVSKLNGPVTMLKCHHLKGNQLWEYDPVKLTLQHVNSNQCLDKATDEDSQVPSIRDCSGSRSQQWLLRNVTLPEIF
Further details: host or cells: bovine colostrum. As to conditions: Elhammer and Kornfeld, 1986; read-out: Km for UDP-GalNAc; cited from earlier work.

Test [4] deals with T2, bovine colostrum GalNAc-transferase. The experiment in a line: Transfer of N-acetylgalactosamine to protein acceptors. The format is biochemical. As to conditions: for acceptor activity (in words): native or reduced and carboxymethylated state. Further details: from tissue; host or cells: bovine colostrum. As to the method:
The above conclusions and the predictions of the specificity algorithm are validated experimentally by studying the ability of bovine colostrum GalNAc-transferase to transfer N-acetylgalactosamine to a variety of acceptors, both native proteins and synthetic acceptor peptides. The transfer of N-acetylgalactosamine to protein acceptors is assayed as described by Elhammer and Kornfeld, 1986, with minor modifications. The concentration of UDP-GalNAc is saturating in all assays; a Km of 8 μM is reported for bovine colostrum GalNAc-transferase (Elhammer and Kornfeld, 1986).
The transfer of N-acetylgalactosamine to protein acceptors was assayed
under standard conditions (see Material and Methods). The acceptor
concentration was 65 μM, the enzyme concentration approximately 65
mU/ml and assay time was 60 minutes. The transfer to both native and
reduced-carboxymethylated acceptors was assayed.

Where “and” joins values, the source holds several entries; their conditions need not be identical. Equal values may be shown once.

As a reminder, the Km is the substrate concentration at which the rate is half of its maximum. Take `CC(=O)N[C@H]1[C@@H](OP(=O)(O)OP(=O)(O)OC[C@H]2O[C@@H](n3ccc(=O)[nH]c3=O)[C@H](O)[C@@H]2O)O[C@H](CO)[C@H](O)[C@@H]1O` [UDP-GalNAc, UDP-N-acetylgalactosamine]: the Michaelis-Menten constant (Km) in test [1] is ~1.7 µM and 1.7 µM; in test [2] it was 6 µM; in test [3], 8 µM.
Regarding “Bovine cytochrome C: protein with one Ser and eight Thr residues but no predicted potential sites”, the “Product formed, Native” value in test [4] (native acceptor 65 μM, enzyme approx. 65 mU/ml, 60 minutes) is given as less than 0.1 nmol/min/mg. Besides, the “acceptor activity (in words)” value in test [4] (listed as bovine cytochrome C) is “not an acceptor”; in test [4] (listed as cytochrome C) it was “completely inactive as an acceptor”. Further, in test [4] (reduced and carboxymethylated acceptor 65 μM, enzyme approx. 65 mU/ml, 60 minutes), the “Product formed, Reduced and carboxymethylated” value is recorded as less than 0.1 nmol/min/mg.
